Measured values as given in patent EP1175513B1, “MinK-RELATED GENES, FORMATION OF POTASSIUM [sequence] AND ASSOCIATION WITH CARDIAC [sequence]” (The University of Utah Research Foundation, priority 1999, dated 2000).

B1: rMiRP1 (other)
chain: MTTLANLTQTLEDAFKKVFITYMDSWRRNTTAEQQALQARVDAENFYYVILYLMVMIGMFAFIVVAILVSTVKSKRREHSQDPYHQYIVEDWQQKYRSQILHLEDSKATIHENLGATGFTVSP

Columns and labels:
HERG = HERG (human, UniProt Q12809 1-1159); assay: cell-based or functional assay
[1] = human, in vivo, po
Method: To test the hypothesis that MiRP1 mutants cause cardiac arrhythmia, we screened a panel of 20 patients with drug-induced arrhythmia and 230 patients with inherited or sporadic arrhythmias and no mutations in their KVLQT1, HERG, SCN5A or KCNE1 genes.
Q9E-hMiRP1. […] The patient is a person with a history of high blood pressure, non-insulin dependent diabetes and stroke. […] The patient was admitted to the hospital with pneumonia and treated with 7 doses of intravenous erythromycin, 500 mg every 6 hours and then switched to oral clarithromycin, 500 mg every 12 hours.

[2] = target: T1, channels formed with Q9E-hMiRP1 (Homo sapiens, UniProt Q12809); assay: in vitro; settings: cho cells
T1 sequence (Q12809 whole entry): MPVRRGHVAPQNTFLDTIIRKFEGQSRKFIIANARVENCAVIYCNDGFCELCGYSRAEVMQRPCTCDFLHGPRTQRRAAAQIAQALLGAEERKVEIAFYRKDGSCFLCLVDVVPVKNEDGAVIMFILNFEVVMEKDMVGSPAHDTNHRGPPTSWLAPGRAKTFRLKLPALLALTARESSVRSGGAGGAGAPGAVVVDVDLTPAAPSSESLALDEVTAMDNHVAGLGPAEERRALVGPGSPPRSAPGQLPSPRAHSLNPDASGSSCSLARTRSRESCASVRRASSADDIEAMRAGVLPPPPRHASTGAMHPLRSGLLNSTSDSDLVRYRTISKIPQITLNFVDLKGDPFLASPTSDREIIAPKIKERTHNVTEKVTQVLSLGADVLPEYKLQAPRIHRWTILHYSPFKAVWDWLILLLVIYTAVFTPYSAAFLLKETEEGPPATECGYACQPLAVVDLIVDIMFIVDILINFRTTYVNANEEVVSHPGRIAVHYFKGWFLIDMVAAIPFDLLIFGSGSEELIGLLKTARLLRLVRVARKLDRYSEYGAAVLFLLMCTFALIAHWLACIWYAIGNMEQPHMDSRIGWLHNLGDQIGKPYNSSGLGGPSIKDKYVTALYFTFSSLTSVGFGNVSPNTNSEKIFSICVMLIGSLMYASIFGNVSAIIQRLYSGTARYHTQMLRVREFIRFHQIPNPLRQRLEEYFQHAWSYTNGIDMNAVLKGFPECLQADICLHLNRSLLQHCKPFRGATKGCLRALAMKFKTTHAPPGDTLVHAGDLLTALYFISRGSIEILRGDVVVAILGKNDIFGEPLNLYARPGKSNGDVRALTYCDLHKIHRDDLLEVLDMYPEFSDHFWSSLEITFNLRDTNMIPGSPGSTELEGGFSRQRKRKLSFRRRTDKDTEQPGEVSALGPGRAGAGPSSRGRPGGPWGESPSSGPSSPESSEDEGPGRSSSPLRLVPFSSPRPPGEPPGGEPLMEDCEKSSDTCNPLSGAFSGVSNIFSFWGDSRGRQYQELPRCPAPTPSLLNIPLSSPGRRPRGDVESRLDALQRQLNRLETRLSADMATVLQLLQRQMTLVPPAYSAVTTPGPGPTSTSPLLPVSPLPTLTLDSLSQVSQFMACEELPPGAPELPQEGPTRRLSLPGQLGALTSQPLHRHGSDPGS
T1 sequence (Q9Y6J6 with tags, fused parts or gaps Q9E partner): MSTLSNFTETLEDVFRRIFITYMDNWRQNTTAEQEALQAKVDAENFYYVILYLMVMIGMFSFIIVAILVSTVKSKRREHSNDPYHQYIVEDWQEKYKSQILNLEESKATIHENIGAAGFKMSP

[3] = target: channels formed with wild type hMiRP1 (Homo sapiens, UniProt Q12809); assay: Clarithromycin blockade of channels expressed in CHO cells; settings: effect of clarithromycin (Fig. 9C)
Sequence of channels formed with wild type hMiRP1 (Q12809 whole entry): as the sequence (Q12809 whole entry) above
Sequence of channels formed with wild type hMiRP1 (Q9Y6J6 whole entry partner): as the sequence (Q9Y6J6 with tags, fused parts or gaps Q9E partner) above, with E9Q counted along it

[4] = target: T1, channels formed with Q9E-hMiRP1; assay: as above; settings: effect of clarithromycin (Fig. 9C)

Molecule | activation V1/2 in 1 mM Ca^2+, 1 mM KCl solution (HERG) [mV] | activation V1/2 mV (HERG) [mV] | deactivation ratio If/(Is + If) (HERG) | deactivation τf s (HERG) [ms] | deactivation τs, s (HERG) | further results
Q9E-hMiRP1 (from UniProt Q9Y6J6 1-123) | -12 | -12 | 0.8 | 100 | 750 | 
M54T-hMiRP1 (from UniProt Q9Y6J6 1-123) |  | -21 | 0.81 | 37 | 266 | faster deactivation against wild type hMiRP1 channels (HERG): 3 fold
CC[C@H]1OC(=O)[C@H](C)[C@@H](O[C@H]2C[C@@](C)(OC)[C@@H](O)[C@H](C)O2)[C@H](C)[C@@H](O[C@@H]2O[C@H](C)C[C@H](N(C)C)[C@H]2O)[C@](C)(OC)C[C@@H](C)C(=O)[C@H](C)[C@@H](O)[C@]1(C)O [clarithromycin] |  |  |  |  |  | arrhythmia developed [1]: TdP and VF; selectivity ratio [2]: 3; slope factor [3]: no change; slope factor [4]: no change
wild type human MiRP1 (from UniProt Q9Y6J6 1-123) | -20 | -21 | 0.82 | 80 | 483 | faster deactivation against HERG alone (τf at -120 mV) (HERG): 3 fold; unitary conductance (oocytes) (HERG): 8 pS
T8A-hMiRP1 (from UniProt Q9Y6J6 1-123) |  | -29 | 0.83 | 100 | 590 | 
B1 |  |  |  |  |  | acceleration of single-channel deactivation (HERG): 2.3 fold; increase in deactivation rate against HERG alone (HERG): 7 fold; increase in deactivation rate, plasma-like solution (HERG): ~2 fold
